Drawing on US20250236650A1, this text covers EC50 (read off the curve) for 4 substances.

This test concerns the target murine CTLA-4 fused to CD3ζ, expressed on the murine T-cell hybridoma 58α-β-CTLA-4/CD3ζ (murine) (UniProt P09793). Nature of the test: flow cytometry on 58α-β-CTLA-4/CD3ζ cells, R-PE donkey anti-mouse IgG secondary antibody, MFI.

For orientation: EC50 (read off the curve) means the midpoint of the concentration-response curve.

Sequence of mouse anti-mouse CTLA-4 antibody 9D9, mouse IgG2a isotype (light): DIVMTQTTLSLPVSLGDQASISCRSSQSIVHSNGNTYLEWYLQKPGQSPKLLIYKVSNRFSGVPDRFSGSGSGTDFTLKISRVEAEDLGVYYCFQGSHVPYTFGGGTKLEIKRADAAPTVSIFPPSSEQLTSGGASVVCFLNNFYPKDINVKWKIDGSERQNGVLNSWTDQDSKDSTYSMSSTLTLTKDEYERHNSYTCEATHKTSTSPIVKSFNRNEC
Sequence of mouse anti-mouse CTLA-4 antibody 9D9, mouse IgG2a isotype (heavy): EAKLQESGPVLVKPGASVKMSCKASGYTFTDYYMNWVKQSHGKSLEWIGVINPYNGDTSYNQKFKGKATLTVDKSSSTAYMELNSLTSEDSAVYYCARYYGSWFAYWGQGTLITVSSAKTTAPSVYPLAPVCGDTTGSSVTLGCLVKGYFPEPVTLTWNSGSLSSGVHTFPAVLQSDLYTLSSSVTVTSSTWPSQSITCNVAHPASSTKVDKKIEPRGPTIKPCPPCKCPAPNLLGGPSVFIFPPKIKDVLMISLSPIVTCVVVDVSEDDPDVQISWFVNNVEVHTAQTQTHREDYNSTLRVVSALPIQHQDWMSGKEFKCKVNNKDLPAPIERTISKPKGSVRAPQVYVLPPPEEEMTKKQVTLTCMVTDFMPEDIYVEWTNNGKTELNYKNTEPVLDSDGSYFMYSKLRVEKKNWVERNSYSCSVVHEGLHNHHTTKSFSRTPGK
Sequence of mouse anti-mouse CTLA-4 antibody 9D9, mouse IgG2b isotype (original isotype, derived from the hybridoma) (light): as the sequence (light) above
Sequence of mouse anti-mouse CTLA-4 antibody 9D9, mouse IgG2b isotype (original isotype, derived from the hybridoma) (heavy): as the sequence (heavy) above
Sequence of mouse anti-mouse CTLA-4 antibody 9D9, mouse IgG1 isotype (light): as the sequence (light) above
Sequence of mouse anti-mouse CTLA-4 antibody 9D9, mouse IgG1 isotype (heavy): as the sequence (heavy) above

For the substance “mouse anti-mouse CTLA-4 antibody 9D9, mouse IgG2b isotype (original isotype, derived from the hybridoma)”, the 50% effective concentration (EC50 (read off the curve)) came to 0.4 µg/mL.
“mouse anti-mouse CTLA-4 antibody 9D9, mouse IgG1 isotype containing a D265A mutation (from UniProt P01868 1-324)” had a concentration giving a half-maximal response (EC50 (read off the curve)) of 0.2 µg/mL.
In the case of “mouse anti-mouse CTLA-4 antibody 9D9, mouse IgG1 isotype” it was 0.6 µg/mL; in that of “mouse anti-mouse CTLA-4 antibody 9D9, mouse IgG2a isotype”, 0.7 µg/mL.
